In the supplement of paper PMC10567573:

B1: KCTD10 (parent)
chain: SSKEEQKLIATSNKPAVKLLYNRS
B2: PRAME (parent)
chain: KKLKIFAMPMQDIKMILKMVQLDS

Variants of: B1
Assay: protein stability index of a GFP-peptide fusion (GPS, HEK-293T) (PSI 1-6); higher = more stable
Details: c terminus: a fixed tail appended
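Note: lentivirally expressed fusions sorted by FACS into six bins by GFP to DsRed ratio, PSI derived from sequencing read proportions per bin multiplied by bin number.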

Protein stability index: each site, then its substitutions
S24: V 3.5, C 3.25, A 3.65, T 4.21, Q 4.17, H 3.56, W 2.6, N 4.2, P 4.09, F 3.52, M 3.52, Y 3.48, R 4.46, D 4.45, I 3.22, G 4.04, K 4.7, E 4.55, L 3.4
R23: T 3.7, V 3.74, W 3.15, Y 3.32

Variants of: B2
Assay: as above
Details: c terminus: a fixed tail appended

Protein stability index, by site and new letter:
I5: F 2.77, G 4.35, T 2.5, K 4.37, P 2.55, H 1.77, A 3.02, V 3.29, Y 2.6, E 3.63, N 4.02, D 1.82, C 2.65
D23: I 2.33, S 3.79, T 2.86, M 1.94, K 2.4, F 3.54, N 2.18, W 2.58, P 3.05, E 3.61
K18: N 1.99, Y 2.62, E 3.69, R 3.54, S 2.19, P 1.56, G 3.49, D 2.22, W 3.98, T 2.42, V 4.3, M 2.67, L 3.04, F 3.27, A 3.37, H 2.65, Q 2.18
M15: N 1.59, C 2.02, K 3.85, Q 1, A 2.66, G 2.96, H 3.17, E 2.36, P 1.81, D 2.22, F 2.51, I 2.09
M19: C 3.53, I 2.81, Q 2.89, G 2.15, N 2.21, W 2.46, F 2.46, S 2.44, D 2.13, P 1.69
A7: N 2.46, G 1.38, C 2.66, S 3.04, M 2.6, P 2.85, K 3.26, W 3.77, V 2.83, H 2.52, I 3.67, R 2.61, Y 4.92
V20: R 2.37, I 4.22, T 3.9, F 2.98, C 2.55, D 2.19, A 3.51, K 4.07, H 3.51, Y 2.21, E 2.33, S 2.01, N 2.32, P 2.22
Q21: T 3.42, G 3.64, K 3.17, N 2.82, P 3.91, E 2.03, M 2.33, A 3.36, C 3.19
L22: H 3.28, I 3.88, R 2.83, D 4.71, Q 2.51, C 1.88, K 1.95, V 3.63, A 1.13, M 1.42, Y 2.57, P 3.45
S24: Q 2.02, I 2.49, D 4.26, F 2.85, V 2.5, E 4.07, T 2.39, M 3.73, A 3.45, R 3.56, P 1.9, H 2.91, G 2.47
K1: S 3.56, R 3.39, P 3.89, D 3.38, H 3.51, L 2.86, M 2.68, A 3.05, T 3.61, Q 2.55, Y 1.86, V 2.08, F 4.97, E 2.31, N 3.99
I16: C 2.5, S 3.21, N 1.23, E 1.47, G 2.32, H 2.66, Y 3.04, D 1.73, Q 1.6, F 3.41, V 2.48, K 1.69, T 3.06, L 1.71, R 1.75, W 2.79
K14: S 1.59, H 3.17, I 3.61, D 3.25, T 1.64, G 2.88, C 2.52, P 3.66, Q 2.64, V 2.44, N 3.16, Y 2.42, E 2.98
F6: N 1.3, W 4.71, K 2.72, D 1.26, M 1.84, Q 1.59, A 2.77, G 2.55, R 3.11, E 1.52, T 2.2, C 3.09
P9: W 4.76, N 1.79, H 2.22, Y 1.43, T 4.36, L 1.62, C 2.96
Q11: C 2.32, H 3.43, D 2.47, N 2.79, P 3.82, S 2.52, M 2.31, I 2.57, A 3.71, Y 3.22, L 2.85, W 3.08, F 3.43, R 4.36, V 2.19, K 3.32, T 2.39, G 3.84
M8: P 1.72, N 3.02, T 2.71, D 3.23, A 2.02, H 3.92, K 2.42, E 1.39, V 3.54, F 2.88, C 4.6, S 2.46
M10: E 3.14, V 3.74, C 2.5, Q 1.93, T 2.93, K 2.06, A 1.93, Y 2.52, G 3.5, N 2.7, R 2.7, P 2.72, H 2.12
D12: Y 3.17, L 2.29, R 2.17, Q 4.16, I 1.63, M 4.16, C 3.07, K 2.75, T 3.29, N 2.5, P 3.3, F 3.57
K2: Q 3.53, N 4.46, Y 3.88, M 1.79, R 1.59, G 2.86, V 2.36, D 3.31, T 2.9, F 2.09, A 2.69, P 2.61, I 3.39, L 2.34
L17: M 2.59, D 1.88, R 1.75, H 2.39, Q 1.62, C 2.73, G 1.71, Y 3.8, I 2.19, K 2.11, V 2.64, T 1.12, N 1.5, P 2.27, W 2.06, E 2.04
L3: C 2.1, D 3.34, N 2.82, M 4.28, H 3.6, S 2.92, E 1.06, R 2.1, W 2.03, Y 4.33
I13: N 1.54, T 1.64, V 3.55, Q 1.93, A 2.39, R 2.96, H 1.84, W 1.03, S 2.45, K 1.44, F 2.23, M 2.88, D 2.66, Y 4.03, P 1.32, E 1.65
K4: H 4.52, M 3.45, R 1.99, F 2.44, W 2.87, D 1.92, E 2.02, N 1.6, G 4.41, P 2.85, S 3.49, I 3.41, A 2.11, C 2.4
